The values below come from patent US20230213525.

Series [1] deals with T1, TrxA_ElaSub1_CBM-His fusion protein.
T1 chain: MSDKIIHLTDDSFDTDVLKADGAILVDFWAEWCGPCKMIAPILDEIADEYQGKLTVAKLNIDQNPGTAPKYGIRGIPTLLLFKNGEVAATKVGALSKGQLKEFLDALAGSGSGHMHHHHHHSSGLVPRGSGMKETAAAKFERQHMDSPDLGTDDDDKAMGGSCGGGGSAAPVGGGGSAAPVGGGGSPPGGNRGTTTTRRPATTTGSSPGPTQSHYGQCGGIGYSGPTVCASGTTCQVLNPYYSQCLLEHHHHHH

For series [2], the target named is T2, ElaSub1_CBM_His chimeric protein (variant 3), separated from the TrxA tag and coupled with Remazol Brilliant Blue.
T2 chain: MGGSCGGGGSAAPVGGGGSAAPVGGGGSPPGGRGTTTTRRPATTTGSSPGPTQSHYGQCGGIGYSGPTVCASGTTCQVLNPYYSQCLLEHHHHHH

B1: recombinant expressed bovine enterokinase from Merck Millipore (protein)
chain: IVGGSDSREGAWPWVVALYFDDQQVCGASLVSRDWLVSAAHCVYGRNMEPSKWKAVLGLHMASNLTSPQIETRLIDQIVINPHYNKRRKNNDIAMMHLEMKVNYTDYIQPICLPEENQVFPPGRICSIAGWGALIYQGSTADVLQEADVPLLSNEKCQQQMPEYNITENMVCAGYEAGGVDSCQGDSGGPLMCQENNRWLLAGVTSFGYQCALPNRPGVYARVPRFTEWIQSFLH
With B1, the “separation of the chimeric construct from the TrxA tag (SDS-PAGE)” value in series [1] is recorded as “The separation of the desired chimeric construct from the TrxA-Tag was verified by SDS-PAGE”.

B2: human leukocyte elastase (HLE) (protein)
chain: IVGGRRARPHAWPFMVSLQLRGGHFCGATLIAPNFVMSAAHCVANVNVRAVRVVLGAHNLSRREPTRQVFAVQRIFENGYDPVNLLNDIVILQLNGSATINANVQVAQLPAQGRRLGNGVQCLAMGWGLLGRNRGIASVLQELNVTVVTSLCRRSNVCTLVRGRQAGVCFGDSGSPLVCNGLIHGIASFVRGGCASGLYPDAFAPVAQFVNWIDSIIQ
B2: in series [2], the “colour of the supernatant (dye release from the filter strip carrying the chimeric peptide, 30 min, 0.05 U/ml HLE)” value is recorded as “Initially non coloured samples (clear supernatant) that exhibit elastase activity developed a blue colour”.
